In US20250388694A1 (BOOSTIMMUNE, published 2025):

How the values were obtained:
[1] = target: T1, Human TCTP (translationally controlled tumor protein) (human, UniProt P13693 1-172); assay: ELISA, human TCTP coated at 1 µg/ml, antibody titrated, OD 450 nm
T1 construct: also called HRF; Tpt1
T1 sequence: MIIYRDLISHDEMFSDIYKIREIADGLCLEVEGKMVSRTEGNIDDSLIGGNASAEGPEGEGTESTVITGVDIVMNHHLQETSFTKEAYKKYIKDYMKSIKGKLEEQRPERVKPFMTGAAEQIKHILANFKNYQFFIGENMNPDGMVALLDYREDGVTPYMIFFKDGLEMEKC
Experimental: ELISA was carried out to quantitatively analyze the binding capacity of selected antibodies to antigens. To this end, human TCTP was attached to an ELISA plate at a concentration of 1 μg/ml and then treated with antibodies of various concentrations to check the relative binding capacity. As a result of the measurement, all of antibodies Ab1, Ab2, Ab3, Ab4, Ab5, Ab6, Ab7, Ab8, Ab9, Ab12, Ab13, Ab14, Ab15, Ab17, Ab18, Ab19, Ab20, Ab21, and Ab22 were confirmed to bind well to human TCTP (FIGS. 1a and 1b).

[2] = target: T1, Human TCTP (translationally controlled …); assay: SPR, Biacore 8K, human TCTP immobilised on CM5 chip, antibody as analyte, 1:1 model
Experimental: The antigen binding capacity of antibodies selected in Example 1 was analyzed using a SPR technique. The device used was Biacore 8K (Ge Healthcare). Human TCTP was immobilized on a chip, and antibodies were shed at 6 or 7 different concentrations. A CM5 chip (GE Healthcare, Cat. 29-1275-56), a regeneration buffer (10 mM glycine-HCl (GE Healthcare)), and a driving buffer HBS-EP+, and the like were used. For kinetic analysis, the binding time was set to 100 or 120 seconds, the flow rate was set to 30 or 50 μl/min in the binding phase, and in the dissociation phase, the dissociation time was set to 300 or 360 seconds, and the flow rate was set to 30 or 50 μl/min. The fitting was carried out using a 1:1 combined model, and BIACore Evaluation Software (GE healthcare) was used as the evaluation software.

[3] = target: T1, Human TCTP (translationally controlled …); assay: ELISA on human TCTP, binder titrated as scFv (axis [scFv] Log(nM)), OD450 [panel Human TCTP]
mouse TCTP = target: T2, mouse TCTP (mouse, UniProt P63028 1-172); assay: ELISA on mouse TCTP, binder titrated as scFv (axis [scFv] Log(nM)), OD450 [panel Mouse TCTP]
T2 sequence (looked up): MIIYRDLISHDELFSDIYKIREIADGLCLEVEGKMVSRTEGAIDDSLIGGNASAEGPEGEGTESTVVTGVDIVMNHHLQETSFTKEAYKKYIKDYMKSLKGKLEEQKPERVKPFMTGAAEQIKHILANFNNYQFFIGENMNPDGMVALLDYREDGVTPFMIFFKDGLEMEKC

[4] = target: T1, Human TCTP (translationally controlled …); assay: competition ELISA: human TCTP coated at 1 µg/ml, 150 nM TLR2 plus titrated antibody, bound TLR2 detected; % inhibition of TLR2-TCTP binding

B1: Ab18 (antibody, V domains shown)
VH: QVQLQQSGPGLVKPSQTLSLTCAISGDSVSSNSAAWNWIRQSPSRGLEWLGRTYYRSKWYNDYAVSVKSRITINPDTSKNQFSLQLNSVTPEDTAVYYCARGGAAVFDYWGQGTLVTVSS
VL: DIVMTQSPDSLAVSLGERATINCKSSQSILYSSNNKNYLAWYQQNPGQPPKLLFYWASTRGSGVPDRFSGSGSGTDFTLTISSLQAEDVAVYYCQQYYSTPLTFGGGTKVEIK
notes: also called antibody Ab18
- binding result [1]: binds

B2: Ab13 (antibody, V domains shown)
VH: QVQLQQSGPGLVKPSQTLSLTCAISGDSVSSNSAAWNWIRQSPSRGLEWLGRTYYRSKWYNDYAVSVKSRITINPDTSKNQFSLQLNSVTPEDTAVYYCARGGAAVFDYWGQGTLVTVSS
VL: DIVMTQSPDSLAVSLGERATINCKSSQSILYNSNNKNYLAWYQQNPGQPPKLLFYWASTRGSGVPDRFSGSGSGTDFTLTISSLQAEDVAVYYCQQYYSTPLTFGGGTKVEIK
notes: also called antibody Ab13
- EC50 (read off the curve) [1]: ~10 ng/mL

B3: Ab17 (antibody, V domains shown)
VH: QVQLQQSGPGLVKPSQTLSLTCAISGDSVSSNSAAWNWIRQSPSRGLEWLGRTYYKSKWYNDYAVSVKSRMTINPDTSKNQFSLQLNSVTPEDTAVYYCARGGSAVFDYWGQGTLVTVSS
VL: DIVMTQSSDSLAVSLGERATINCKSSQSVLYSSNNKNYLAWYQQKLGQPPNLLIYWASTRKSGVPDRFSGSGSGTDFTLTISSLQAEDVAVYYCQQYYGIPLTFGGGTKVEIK
notes: also called antibody Ab17
- Kd [2]: 1.23 nM

B4: Ab14 (antibody, V domains shown)
VH: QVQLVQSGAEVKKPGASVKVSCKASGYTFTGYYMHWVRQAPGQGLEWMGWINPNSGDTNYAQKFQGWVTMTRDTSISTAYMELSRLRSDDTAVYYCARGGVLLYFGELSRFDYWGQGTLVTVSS
VL: QSALTQPPSASGSPGQSVAISCTGTSSDVGGYNYVSWYQQHPGKAPQLLIYEVTKRPSGVPDRFSGSKSGNTASLTVSGLQAEDEADYYCASYAGDNNLVFGGGTKLTVL
notes: also called antibody Ab14
- binding result [1]: binds

B5: Ab15 (antibody, V domains shown)
VH: QVQLVQSGAEVKKPGASVKLSCKAAGYTFTVNAMHWVRQAPGQGLEWMGWINAGTGKTKYSQKFQGRLTITRDTSASTAYMHLSGLRSEDTAVYYCARGRAVAFDPWGQGTLVTVSS
VL: QSALTQPPSASGSPGQSVTISCTGTSSDVGGYDYVSWYQQHPDKAPKLMIYEVNKRPSGVPDRFSGSKSGNTASLTVSGLQAEDEADYYCNSYAGNNNLVFGGGTKLTVL
notes: also called antibody Ab15
- binding result [1]: binds

B6: Ab10-1 (antibody, V domains shown)
VH: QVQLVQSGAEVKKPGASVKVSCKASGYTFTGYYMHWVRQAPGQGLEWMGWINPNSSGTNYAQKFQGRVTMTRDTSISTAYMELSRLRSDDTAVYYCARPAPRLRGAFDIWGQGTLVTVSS
VL: QSVVTQPPSVSAAPGQKVTISCSGSSSNIGNKKVSWYQQLPVTAPKLLIYDDNKRPSGIPDRFSGSKSGTSATLGITGLQTGDEADYYCATWDSSLRAVVFGGGTKLTVL
notes: Single-residue CDR mutant of Ab10; also called antibody Ab10-1; mutant of Ab10
- EC50 (read off the curve) [3]: ~8 nM
- binding result (mouse TCTP): binds

B7: Ab10-2 (antibody, V domains shown)
VH: not shown
VL: QSVVTQPPSVSAAPGQKVTISCSGSSSNIGNKKVSWYQQLPVTAPKLLIYDDNKRPSGIPDRFSGSKSGTSATLGITGLQTGDEADYYCATWDSSLRAVVFGGGTKLTVL
notes: Single-residue CDR mutant of Ab10; also called antibody Ab10-2; mutant of Ab10
- binding result [3]: binds
- binding result (mouse TCTP): binds

B8: Ab10-3 (antibody, V domains shown)
VH: not shown
VL: QSVVTQPPSVSAAPGQKVTISCSGSSSNIGNKKVSWYQQLPVTAPKLLIYDDNKRPSGIPDRFSGSKSGTSATLGITGLQTGDEADYYCATWDSSLRAVVFGGGTKLTVL
notes: Single-residue CDR mutant of Ab10; also called antibody Ab10-3; mutant of Ab10
- EC50 (read off the curve) (mouse TCTP): ~5 nM
- IC50 (read off the curve) [4]: ~20 nM

B9: Ab10-4 (antibody, V domains shown)
VH: not shown
VL: QSVVTQPPSVSAAPGQKVTISCSGSSSNIGNKKVSWYQQLPVTAPKLLIYDDNKRPSGIPDRFSGSKSGTSATLGITGLQTGDEADYYCATWDSSLRAVVFGGGTKLTVL
notes: Single-residue CDR mutant of Ab10; also called antibody Ab10-4; mutant of Ab10
- binding result [3]: binds
- binding result (mouse TCTP): binds

B10: Ab10-5 (antibody, V domains shown)
VH: not shown
VL: QSVVTQPPSVSAAPGQKVTISCSGSSSNIGNKKVSWYQQLPVTAPKLLIYDDNKRPSGIPDRFSGSKSGTSATLGITGLQTGDEADYYCATWDSSLRAVVFGGGTKLTVL
notes: Single-residue CDR mutant of Ab10; also called antibody Ab10-5; mutant of Ab10
- binding result [3]: binds
- binding result (mouse TCTP): binds

B11: Ab10-6 (antibody, V domains shown)
VH: not shown
VL: QSVVTQPPSVSAAPGQKVTISCSGSSSNIGTKKVSWYQQLPVTAPKLLIYDDNKRPSGIPDRFSGSKSGTSATLGITGLQTGDEADYYCATWDSSLRAVVFGGGTKLTVL
notes: Single-residue CDR mutant of Ab10; also called antibody Ab10-6; mutant of Ab10
- EC50 (read off the curve) [3]: ~1 nM
- EC50 (read off the curve) (mouse TCTP): ~9 nM

B12: Ab10-7 (antibody, V domains shown)
VH: not shown
VL: QSVVTQPPSVSAAPGQKVTISCSGSSSNIGNFKVSWYQQLPVTAPKLLIYDDNKRPSGIPDRFSGSKSGTSATLGITGLQTGDEADYYCATWDSSLRAVVFGGGTKLTVL
notes: Single-residue CDR mutant of Ab10; also called antibody Ab10-7; mutant of Ab10
- EC50 (read off the curve) [3]: ~20 nM
- binding result (mouse TCTP): binds

B13: Ab10-8 (antibody, V domains shown)
VH: not shown
VL: QSVVTQPPSVSAAPGQKVTISCSGSSSNIGNKKVSWYQQLPVTAPKLLIYDDNKRPSGIPDRFSGSKSGTSATLGITGLQTGDEADYYCVTWDSSLRAVVFGGGTKLTVL
notes: Single-residue CDR mutant of Ab10; also called antibody Ab10-8; mutant of Ab10
- binding result [3]: binds
- binding result (mouse TCTP): binds

B14: Ab10-9 (antibody, V domains shown)
VH: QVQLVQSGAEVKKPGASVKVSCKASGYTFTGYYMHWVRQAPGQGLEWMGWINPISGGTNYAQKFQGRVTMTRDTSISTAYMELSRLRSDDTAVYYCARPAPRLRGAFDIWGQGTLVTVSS
VL: QSVVTQPPSVSAAPGQKVTISCSGSSSNIGNKKVSWYQQLPVTAPKLLIYDDNKRPSGIPDRFSGSKSGTSATLGITGLQTGDEADYYCATWDSSLRAVVFGGGTKLTVL
notes: Mutant of Ab10 made to prevent post-translational modification; also called antibody Ab10-9; mutant of Ab10
- binding result [3]: binds
- binding result (mouse TCTP): binds

B15: Ab10-10 (antibody, V domains shown)
VH: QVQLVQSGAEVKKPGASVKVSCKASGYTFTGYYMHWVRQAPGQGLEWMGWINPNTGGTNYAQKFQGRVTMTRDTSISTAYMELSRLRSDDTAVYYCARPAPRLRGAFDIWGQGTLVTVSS
VL: QSVVTQPPSVSAAPGQKVTISCSGSSSNIGNKKVSWYQQLPVTAPKLLIYDDNKRPSGIPDRFSGSKSGTSATLGITGLQTGDEADYYCATWDSSLRAVVFGGGTKLTVL
notes: Mutant of Ab10 made to prevent post-translational modification; also called antibody Ab10-10; mutant of Ab10
- binding result [3]: binds
- binding result (mouse TCTP): binds

B16: Ab19 (antibody, V domains shown)
VH: QVQLQQSGPGLVKPSQTLSLTCAISGDSVSSSSAAWNWIRQSPSRGLEWLGRTYYRSKWYNDYAESVKSRITINPDTSKNQFSLQLNSVTPEDTAVYYCARRLTIVRGVMRGGMDVWGQGTTVTVSS
VL: DIVMTQSPDSLAVSLDERATINCKSSQNLLYSANNKDYLAWYQQKPGQPPKLLIYWASTRYSGIPDRFSGSGSGTDFTLTISSLQAEDVAVYYCQQYYSTPWTFGQGTKVEIK
notes: also called antibody Ab19
- Kd [2]: 2.77 nM

B17: Ab5 (antibody, V domains shown)
VH: QVQLVQSGAEVKKPGASVKVSCKASGYIFISYAMHWVRQAPGQRLEWMGWINAGNGYTEYSQKFQGRVTITRDTSALTAYMELRSLRSEDTAVYYCARRGYFDWWAFDYWGQGTLVTVSS
VL: EIVLTQSPDFQSVTPKEKVTITCRASQSIGSSLHWYQQKPDQSPKLLIKYASQSFSGVPSRFSGSGSGTDFTLTINSLEAEDAATYYCHQSSSLPQTFGQGTKVEIK
notes: From Beacon screening; also called antibody Ab5
- binding result [1]: binds

B18: Ab9 (antibody, V domains shown)
VH: QVQLQQSGPGLVKPSQTLSLTCAISGDSVSSNSAAWNWIRQSPSRGLEWLGRTYYRSKWYNDYAVSVKSRITINPDTSKNQFSLQLNSVTPEDTAVYYCAREGITVGRGVMLYFDLWGRGTLVTVSS
VL: DVLMTQSPLSLPVTLGQPASISCRSSQSLVYSDGNTHLKWFQQRPGQSPRRLIYKVSKWDSGVPDRVSGSGSGTDFTLKISRVEAEDVGVYYCMQGTHWPPTFGQGTKVEIK
notes: From Beacon screening; also called antibody Ab9
- binding result [1]: binds

B19: Ab4 (antibody, V domains shown)
VH: QVQLVQSGAEVKKPGASVKVSCKASGYTFTSNAMHWVRQAPGQRLEWMGWINAGNGNTKYSQKFQGRVTITRDTSASTAYMELSSLRSEDTAVYYCARGYYDILTGYYTTDAFDIWGQGTMVTVSS
VL: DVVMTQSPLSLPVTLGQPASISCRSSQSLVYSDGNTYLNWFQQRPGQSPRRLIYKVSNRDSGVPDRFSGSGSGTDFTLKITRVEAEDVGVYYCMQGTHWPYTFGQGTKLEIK
notes: From Beacon screening; also called antibody Ab4
- binding result [1]: binds

B20: Ab6 (antibody, V domains shown)
VH: QVQLQESGPGLVKPSGTLSLTCAVSGGSISSSNWWSWVRQPPGKGLEWIGEIDHSGTTTYNPSLKSRVTMSVDQSKNQFSLKLSSVTAADTAVYYCARDGSGSYEGYWGQGTLVTVSS
VL: DIQMTQSPSSLSASVGDRVTITCRASQAISNHLAWFQQKPGKAPKSLIYAASSLQSGVPSKFSGSGSGTDFTLTISSLQPEDFATYYCQQYHSYPITFGQGTRLEIK
notes: From Beacon screening; also called antibody Ab6
- Kd [2]: 72.8 nM

B21: Ab7 (antibody, V domains shown)
VH: QVQLQESGPGLVKPSETLSLTCAVSGGSISSSNWWSWVRQPPGKGLEWIGEIYHGVTTYNPSLKSRVTISVDNSKNQFSLKLSSVTAADTAVYYCARDGSGSYEGYWGQGTLVTVSS
VL: DIQMTQSPSSLSASVGDRVTITCRASQDISNYLAWFQQKPGKAPKSLIYAASSLQSGVPSKFSGSGSGTDFTLTISSLQPEDFATYYCQQYHYYPITFGQGTRLEIK
notes: From Beacon screening; also called antibody Ab7
- Kd [2]: 107 nM
